According to article PMC10889005:

Target: KPNA4 (UniProt O00629)
Assay: pull-down/IP from co-transfected cells
Conditions: reference: IRF3 wild type; sites S97

IRF3 (from UniProt Q14653) IRF3 S97A
binding against the reference: stronger
